Blank lines part the entries; values can stand above or below the substance they belong to.
Key:
14-3-3 = 14-3-3 (UniProt P63104); assay: AUC; sedimentation velocity, SEC buffer, 20 °C, 42 000 rpm; 14-3-3 + P-PI4KB + Rab11; stoichiometries independent of Rab11 nucleotide state
[1] = target: phosphorylated PI4KB (residues 128-799, internal deletion 423-522, T292R, phosphorylated at S294 by PKA) (human) (UniProt Q9UBF8); assay: as above
PI4KB (Homo sapiens) = PI4KB (Homo sapiens) (UniProt Q9UBF8); settings: cited from earlier work
[2] = target: phosphorylated PI4KB (residues 128-799, internal deletion 423-522, T292R, phosphorylated at S294 by PKA) (human) (UniProt Q9UBF8); assay: AUC; sedimentation velocity, SEC buffer, 20 °C, 42 000 rpm; P-PI4KB alone (20 µM) and with Rab11; stoichiometries independent of Rab11 nucleotide state
[3] = target: pseudo-wt PI4KB labeled with Atto488 (human) (UniProt Q9UBF8); assay: fluorescence cross-correlation spectroscopy (FCCS); on GUV membrane; Atto488-PI4KB attached by tethered ACBD3; mCherry-Rab11-His tethered to the membrane via His tag; proteins approximately 50 nM
pseudo-wt PI4KB labeled with Atto488 (human), sequence (Q9UBF8 other isoform, or with tags, fused parts or gaps): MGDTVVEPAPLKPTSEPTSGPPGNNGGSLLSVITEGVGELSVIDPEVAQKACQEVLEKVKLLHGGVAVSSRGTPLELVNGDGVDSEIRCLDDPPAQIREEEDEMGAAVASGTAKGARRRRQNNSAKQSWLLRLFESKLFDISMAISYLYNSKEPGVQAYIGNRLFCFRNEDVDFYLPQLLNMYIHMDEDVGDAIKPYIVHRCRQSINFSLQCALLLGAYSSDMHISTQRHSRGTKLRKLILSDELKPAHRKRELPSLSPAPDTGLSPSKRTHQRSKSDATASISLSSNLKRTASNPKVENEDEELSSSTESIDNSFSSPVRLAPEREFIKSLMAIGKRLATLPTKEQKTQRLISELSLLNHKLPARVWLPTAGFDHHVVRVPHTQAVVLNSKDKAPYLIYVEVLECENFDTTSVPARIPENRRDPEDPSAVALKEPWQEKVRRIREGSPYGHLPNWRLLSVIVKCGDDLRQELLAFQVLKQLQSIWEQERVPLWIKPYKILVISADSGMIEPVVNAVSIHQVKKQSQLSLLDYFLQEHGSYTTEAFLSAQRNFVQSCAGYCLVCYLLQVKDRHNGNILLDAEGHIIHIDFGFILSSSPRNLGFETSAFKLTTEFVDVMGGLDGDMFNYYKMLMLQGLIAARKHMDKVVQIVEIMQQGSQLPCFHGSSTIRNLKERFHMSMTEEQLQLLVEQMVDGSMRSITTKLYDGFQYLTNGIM

phosphorylated PI4KB (residues 128-799, internal deletion 423-522, T292R, phosphorylated at S294 by PKA) (human), sequence (Q9UBF8 other isoform, or with tags, fused parts or gaps with the stated changes): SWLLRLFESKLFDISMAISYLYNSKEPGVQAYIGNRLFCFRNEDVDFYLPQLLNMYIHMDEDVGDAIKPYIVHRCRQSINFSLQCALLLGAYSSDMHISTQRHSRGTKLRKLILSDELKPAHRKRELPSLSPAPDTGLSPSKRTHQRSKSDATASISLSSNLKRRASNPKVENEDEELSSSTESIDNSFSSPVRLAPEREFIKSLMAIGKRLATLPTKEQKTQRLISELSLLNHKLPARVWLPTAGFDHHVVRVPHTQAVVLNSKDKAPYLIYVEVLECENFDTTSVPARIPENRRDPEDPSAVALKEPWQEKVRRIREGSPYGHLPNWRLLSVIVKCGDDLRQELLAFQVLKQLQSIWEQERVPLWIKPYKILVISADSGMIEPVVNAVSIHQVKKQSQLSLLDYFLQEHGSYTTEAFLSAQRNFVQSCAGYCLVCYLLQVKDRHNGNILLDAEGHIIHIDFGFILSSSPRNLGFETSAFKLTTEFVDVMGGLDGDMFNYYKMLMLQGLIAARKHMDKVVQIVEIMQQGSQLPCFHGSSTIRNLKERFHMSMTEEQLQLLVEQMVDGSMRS
PI4KB (Homo sapiens), sequence (Q9UBF8 2-816): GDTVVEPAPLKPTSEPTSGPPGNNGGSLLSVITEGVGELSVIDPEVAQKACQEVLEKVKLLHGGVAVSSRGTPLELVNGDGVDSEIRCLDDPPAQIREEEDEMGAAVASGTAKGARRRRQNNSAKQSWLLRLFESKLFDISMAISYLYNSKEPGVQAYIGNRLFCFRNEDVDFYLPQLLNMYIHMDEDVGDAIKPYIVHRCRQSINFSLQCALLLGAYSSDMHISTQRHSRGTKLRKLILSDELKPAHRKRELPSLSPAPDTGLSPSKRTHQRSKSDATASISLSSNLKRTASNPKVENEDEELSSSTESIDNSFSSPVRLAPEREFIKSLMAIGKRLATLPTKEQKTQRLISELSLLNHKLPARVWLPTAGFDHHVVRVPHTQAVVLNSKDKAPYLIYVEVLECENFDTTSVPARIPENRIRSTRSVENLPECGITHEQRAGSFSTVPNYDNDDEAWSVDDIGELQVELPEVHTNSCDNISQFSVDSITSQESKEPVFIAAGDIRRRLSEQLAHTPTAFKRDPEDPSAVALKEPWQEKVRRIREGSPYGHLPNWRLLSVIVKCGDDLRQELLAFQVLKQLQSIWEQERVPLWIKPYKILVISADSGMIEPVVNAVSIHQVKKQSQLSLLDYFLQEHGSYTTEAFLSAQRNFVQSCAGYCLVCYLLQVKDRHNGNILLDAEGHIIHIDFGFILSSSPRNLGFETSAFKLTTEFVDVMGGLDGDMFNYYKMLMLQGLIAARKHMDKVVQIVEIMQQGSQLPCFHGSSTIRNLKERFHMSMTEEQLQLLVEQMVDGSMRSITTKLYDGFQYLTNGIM
ACBD3, sequence (Q9H3P7 whole entry): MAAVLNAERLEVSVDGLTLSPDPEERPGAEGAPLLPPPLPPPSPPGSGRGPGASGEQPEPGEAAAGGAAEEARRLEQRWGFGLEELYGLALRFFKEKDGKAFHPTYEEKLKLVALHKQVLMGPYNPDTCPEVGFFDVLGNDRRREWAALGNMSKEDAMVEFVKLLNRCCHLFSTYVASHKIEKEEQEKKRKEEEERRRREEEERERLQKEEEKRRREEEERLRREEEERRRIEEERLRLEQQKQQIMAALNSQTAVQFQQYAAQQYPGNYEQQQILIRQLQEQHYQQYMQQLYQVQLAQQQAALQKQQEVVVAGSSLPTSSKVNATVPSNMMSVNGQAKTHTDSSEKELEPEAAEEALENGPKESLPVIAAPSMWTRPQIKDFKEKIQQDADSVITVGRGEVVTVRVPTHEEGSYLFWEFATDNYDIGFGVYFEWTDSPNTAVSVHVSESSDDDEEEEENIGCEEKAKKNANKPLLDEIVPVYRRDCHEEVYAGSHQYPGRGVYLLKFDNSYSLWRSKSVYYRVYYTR

stoichiometry N (14-3-3): 2
stoichiometry N (14-3-3 chains per PI4KB) [1]: 2
Substance: 14-3-3 (from UniProt P63104 1-230) (natural protein)

Substance: ACBD3 (from UniProt Q9H3P7)
Kd (PI4KB (Homo sapiens)): 300 nM

stoichiometry N [1]: 1
stoichiometry N [2]: 1
Substance: Rab11 (from UniProt P62491 1-216) (natural protein)

percent of Rab11 in the complex [3]: 10%
Substance: mCherry-Rab11-His (membrane tethered) (from UniProt P62491 1-216) (natural protein)

Source: paper PMC6345845
